The results in this text go back to paper PMC6049616.

As a reminder, the stoichiometry N is the number of molecules, sites or subunits per partner or assembly.

In this test the target is semiSWEET. Description: native MS.

The substance semiSWEET (natural protein) returned a stoichiometry N of 2.
